This note sets out measurements from PMC3496014 (Journal of structural biology, 2012).

One experiment addresses T1, His6-PfAtg3 (P. falciparum 3D7, UniProt C0H519 1-313).
T1 sequence (looked up): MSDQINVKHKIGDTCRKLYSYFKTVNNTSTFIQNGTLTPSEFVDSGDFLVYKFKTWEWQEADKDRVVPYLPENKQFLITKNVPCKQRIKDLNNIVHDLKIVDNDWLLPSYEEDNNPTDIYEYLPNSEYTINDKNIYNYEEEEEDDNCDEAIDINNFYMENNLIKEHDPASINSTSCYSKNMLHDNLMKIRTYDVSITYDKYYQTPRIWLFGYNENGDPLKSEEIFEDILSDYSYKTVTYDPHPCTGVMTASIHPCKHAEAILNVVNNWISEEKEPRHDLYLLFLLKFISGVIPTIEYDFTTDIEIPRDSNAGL
Briefly: SEC + other: dynamic light scattering.

In the next experiment the target is His6-PfAtg8 L49A (P. falciparum 3D7, UniProt Q8IJK2 1-124, L49A). The experiment in a line: pull-down.
The target of a further experiment is His6-PfAtg8 R27E (P. falciparum 3D7, UniProt Q8IJK2 1-124, R27E). Briefly: pull-down.
For a further experiment, the target named is His6-PfAtg8 K47E (P. falciparum 3D7, UniProt Q8IJK2 1-124, K47E). Briefly: pull-down.
For experiment [1], the target named is His6-PfAtg8 E44A/K45S/K46A (P. falciparum 3D7, UniProt Q8IJK2 1-124, E44A | K45S | K46A). The experiment in a line: pull-down.

B1: His6-PfAtg8 wild type (natural protein, P. falciparum 3D7, UniProt Q8IJK2 1-124, looked up)
chain: MPSLKDEVSFENRVAETHKIRSKYPNRIPVVCERANRSNLPIIEKKKFLVPMNMLVGEFKFILHQHINQSAYGSNMKLFRERTIYLFVNNIVPKTGLLMQDLYEMYKDEDGYLYMEYSCESCLG
As a reminder, the stoichiometry N is a count of units in the complex or per binding partner. Turning to B1, in the experiment with His6-PfAtg3, the “stoichiometry N” value amounted to 1.

B2: MBP-PfAtg3 (enzyme)
chain: MSDQINVKHKIGDTCRKLYSYFKTVNNTSTFIQNGTLTPSEFVDSGDFLVYKFKTWEWQEADKDRVVPYLPENKQFLITKNVPCKQRIKDLNNIVHDLKIVDNDWLLPSYEEDNNPTDIYEYLPNSEYTINDKNIYNYEEEEEDDNCDEAIDINNFYMENNLIKEHDPASINSTSCYSKNMLHDNLMKIRTYDVSITYDKYYQTPRIWLFGYNENGDPLKSEEIFEDILSDYSYKTVTYDPHPCTGVMTASIHPCKHAEAILNVVNNWISEEKEPRHDLYLLFLLKFISGVIPTIEYDFTTDIEIPRDSNAGL
On to B2, for which the binding result (with His6-PfAtg8 L49A; with His6-PfAtg8 R27E; in the experiment with His6-PfAtg8 K47E; in experiment [1]) was “binds” in each case.
